Laboratory results as given in patent publication US5858678.

Columns and labels:
[1] = target: 19K mutant 146-E bait (GAL4(1-147)-19 kD fusion) (yeast; adenovirus) (UniProt P04386); assay: yeast two-hybrid, ONPG beta-galactosidase assay
[2] = target: 19K mutant 123-4 (substitutions for residues 123-124) bait (GAL4(1-147)-19 kD fusion) (yeast; adenovirus) (UniProt P04386); assay: yeast two-hybrid, ONPG beta-galactosidase assay
[3] = target: Bcl-2 deletion mutant #80-6 (lacks residues 80 to 86) bait in pMA424 (yeast; human); assay: yeast two-hybrid, ONPG beta-galactosidase assay
[4] = target: 19K mutant 90-6 (amino acids 90-96) bait (GAL4(1-147)-19 kD fusion) (yeast; adenovirus) (UniProt P04386); assay: yeast two-hybrid, ONPG beta-galactosidase assay
[5] = target: Bcl-2 deletion mutant #106-5 (lacks residues 106 to 115) bait in pMA424 (yeast; human); assay: yeast two-hybrid, ONPG beta-galactosidase assay
[6] = target: Bcl-2 deletion mutant #42-8 (lacks residues 42 to 48) bait in pMA424 (yeast; human); assay: yeast two-hybrid, ONPG beta-galactosidase assay
[7] = target: 19K mutant 75-6 (substitution for residues 75-76) bait (GAL4(1-147)-19 kD fusion) (yeast; adenovirus) (UniProt P04386); assay: yeast two-hybrid, ONPG beta-galactosidase assay
[8] = target: 19K mutant 29-0 bait (GAL4(1-147)-19 kD fusion) (yeast; adenovirus) (UniProt P04386); assay: yeast two-hybrid, ONPG beta-galactosidase assay
[9] = target: human Bcl-2 bait (pMA424-based GAL4 DNA-binding domain fusion, residues 1-239 of Bcl2), wild type (yeast; human); assay: yeast two-hybrid, ONPG beta-galactosidase assay
[10] = target: GAL4(1-147)-19K fusion protein (adenovirus E1B 19 kD protein bait, wild type) (yeast; adenovirus) (UniProt P04386); assay: yeast two-hybrid, ONPG beta-galactosidase assay
[11] = target: 19K mutant 50-1 (amino acids 50-51) bait (GAL4(1-147)-19 kD fusion) (yeast; adenovirus) (UniProt P04386); assay: yeast two-hybrid, ONPG beta-galactosidase assay
[12] = target: 19K mutant 14-5 bait (GAL4(1-147)-19 kD fusion) (yeast; adenovirus) (UniProt P04386); assay: yeast two-hybrid, ONPG beta-galactosidase assay
[13] = target: human Bcl-2 bait (pMA424-based GAL4 DNA-binding domain fusion, residues 1-239 of Bcl2), wild type (yeast; human); assay: yeast two-hybrid, ONPG beta-galactosidase assay, relative to the 19K bait
[14] = target: GAL4(1-147)-19K fusion protein (adenovirus E1B 19 kD protein bait, wild type) (yeast; adenovirus) (UniProt P04386); assay: as above

Chain of Nip3 (19K-interacting protein 3), protein coded by cDNA clone 91, tagged with the GAL4 activation domain (chain): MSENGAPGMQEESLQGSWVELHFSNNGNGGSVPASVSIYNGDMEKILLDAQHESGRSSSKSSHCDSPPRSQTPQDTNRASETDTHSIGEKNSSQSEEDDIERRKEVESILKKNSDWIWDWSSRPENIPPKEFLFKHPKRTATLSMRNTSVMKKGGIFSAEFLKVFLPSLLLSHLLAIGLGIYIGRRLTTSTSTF
Chain of Nip1 (19K-interacting protein 1), protein coded by cDNA clone 22, tagged with the GAL4 activation domain (chain): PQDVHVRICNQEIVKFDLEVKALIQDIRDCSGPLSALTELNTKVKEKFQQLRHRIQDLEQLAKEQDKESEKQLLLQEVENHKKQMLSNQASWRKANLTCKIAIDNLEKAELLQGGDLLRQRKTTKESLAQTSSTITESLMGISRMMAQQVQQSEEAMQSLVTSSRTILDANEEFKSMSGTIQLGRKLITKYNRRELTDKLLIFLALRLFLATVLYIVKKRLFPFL
Chain of Nip2 (19K-interacting protein 2), protein coded by cDNA clone 44, tagged with the GAL4 activation domain (chain): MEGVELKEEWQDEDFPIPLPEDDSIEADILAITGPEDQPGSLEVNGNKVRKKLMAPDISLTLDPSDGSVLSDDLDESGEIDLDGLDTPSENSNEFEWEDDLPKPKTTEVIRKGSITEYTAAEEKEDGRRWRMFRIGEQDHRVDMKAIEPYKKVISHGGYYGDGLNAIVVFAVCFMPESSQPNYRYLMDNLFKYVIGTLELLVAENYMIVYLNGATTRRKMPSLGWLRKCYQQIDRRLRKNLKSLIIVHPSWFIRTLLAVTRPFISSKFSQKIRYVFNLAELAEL

| Substance | relative level of lacZ expression (ONPG) (relative level) [1] | relative level of lacZ expression (ONPG) (relative level) [2] | relative level of lacZ expression (ONPG) (relative level) [3] | relative level of lacZ expression (ONPG) (relative level) [4] | relative level of lacZ expression (ONPG) (relative level) [5] | relative level of lacZ expression (ONPG) (relative level) [6] | relative level of lacZ expression (ONPG) (relative level) [7] | relative level of lacZ expression (ONPG) (relative level) [8] | relative level of lacZ expression (ONPG) (relative level) [9] | relative level of lacZ expression (ONPG) (relative level) [10] | relative level of lacZ expression (ONPG) (relative level) [11] | relative level of lacZ expression (ONPG) (relative level) [12] | relative level of lacZ expression (ONPG) (relative level) [13] | relative level of lacZ expression (ONPG) (relative level) [14] |
| --- | --- | --- | --- | --- | --- | --- | --- | --- | --- | --- | --- | --- | --- | --- |
| Nip1 (19K-interacting protein 1), protein coded by cDNA clone 22, tagged with the GAL4 activation domain | 0.87 | 0.05 | 1.21 | < 0.01 | 0.01 | 0.16 | 1.72 | 0.33 | 1 | 1 | < 0.01 | 0.61 | 1.8 | 1 |
| Nip2 (19K-interacting protein 2), protein coded by cDNA clone 44, tagged with the GAL4 activation domain | 0.98 | 0.24 | 0.8 | 0.04 | 0.06 | 0.09 | 1.6 | 0.32 | 1 | 1 | 0.09 | 0.55 | 0.7 | 1 |
| Nip3 (19K-interacting protein 3), protein coded by cDNA clone 91, tagged with the GAL4 activation domain | 0.28 | 0.1 | 2.87 | 0.01 | 0.11 | 0.19 | 0.22 | 0.19 | 1 | 1 | 0.01 | 0.16 | 1.5 | 1 |
